This passage reports Kd, koff and kon results from paper PMC3185003.

Test [1] concerns the target ABD_(TNF2) displayed on staphylococcal cells. Kind of test: flow cytometry on cells; S. carnosus cells displaying ABD-variants incubated 1 h at RT in PBSP pH 7.4 with twelve concentrations of biotinylated TNF-α (4.3-12900 nM; streptavidin-Alexa Fluor 488) or HSA-Alexa 488 (1.25-2500 nM; 10-20000 nM for ABD_(TNF1)); MFI fitted to a 1:1 model; apparent KD for TNF-α (monomer concentration).

Test [2] addresses non-randomized ABD displayed on staphylococcal cells (not stated (streptococcal)). Described as above.
In test [3] the target is ABD_(TNF1) displayed on staphylococcal cells. The description is as above.
Test [4] concerns the target ABD_(HT015). Briefly: SPR; ProteOn XPR36; ABD-molecules immobilized by amine coupling on GLM or GLC chips (about 800-1500 RU); HSA (7-1200 nM) or TNF-α (1-100 nM) injected, 50 µl/min, 25°C, PBS with 0.1% Tween 20; at least triplicates, two chips, two days; apparent KD for TNF-α (monomer concentration). (Surface plasmon resonance follows binding to a sensor surface in real time, without labels.)

Test [5] has as its target ABD_(HT016). The description is as above.
In test [6] the target is ABD_(T001). The test is described as above.
Test [7] deals with ABD_(T002). Described as above.
Test [8] concerns the target ABD_(T004). Described as above.
Test [9] concerns the target human serum albumin (human) (UniProt P02768). Briefly: SPR; BIAcore 2000; HSA immobilized (2000 RU); ABD-variants injected in duplicates at about 1-3000 nM (up to 250 nM for ABD); 25°C, HBS-EP.

Chain of biotinylated TNF-α (P01375 77-233): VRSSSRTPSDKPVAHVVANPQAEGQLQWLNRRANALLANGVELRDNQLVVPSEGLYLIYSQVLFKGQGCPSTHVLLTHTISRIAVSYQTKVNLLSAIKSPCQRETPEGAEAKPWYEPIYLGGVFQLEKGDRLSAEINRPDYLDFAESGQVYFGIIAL

As for “HSA conjugated to Alexa Fluor 488 (from UniProt P02768 25-609) (natural protein)”, the Kd in test [1] was determined as 0.023 µM; in test [2], 0.019 µM.
In the case of “biotinylated TNF-α (from UniProt P01375 77-233) (ligand)”, the Kd in test [3] came to 0.267 µM; in test [1] it was 0.594 µM.
As to “human serum albumin (from UniProt P02768 25-609) (natural protein)”, the Kd worked out at 0.035 µM in test [4]; 0.068 µM in test [5]; 0.192 µM in test [6]; 0.649 µM in [7]; 0.209 µM in test [8].
Usually koff stands for a measure of how fast the partners let go of each other. A higher koff goes with a short-lived complex. Broadly, the kon is the second-order rate constant of association. In [9], “non-randomized ABD (alkali-stabilized albumin-binding domain from streptococcal protein G) (domain or fragment)” yielded a Kd of 0.0053 µM, a koff of 0.0009 s⁻¹ and a kon of 170000 M⁻¹ s⁻¹.
For the substance “tumor necrosis factor-α (from UniProt P01375 77-233) (ligand)”, the values for the Kd in [5], in test [6] and in test [7] were 0.0045 µM, 0.0052 µM and 0.0029 µM, respectively.
